Here are results for seven molecules from patent publication US20190330365A1 (University of California, published 2019).

“And” between values parts separate entries of the source, which are not always exact repeats. Equal values may be shown once.

In experiment [1] the target is T1, Activated leukocyte cell adhesion molecule (ALCAM), on cells (human, UniProt Q13740 28-583).
T1 construct: whole, on cells; also called guide antigen
T1 sequence (looked up): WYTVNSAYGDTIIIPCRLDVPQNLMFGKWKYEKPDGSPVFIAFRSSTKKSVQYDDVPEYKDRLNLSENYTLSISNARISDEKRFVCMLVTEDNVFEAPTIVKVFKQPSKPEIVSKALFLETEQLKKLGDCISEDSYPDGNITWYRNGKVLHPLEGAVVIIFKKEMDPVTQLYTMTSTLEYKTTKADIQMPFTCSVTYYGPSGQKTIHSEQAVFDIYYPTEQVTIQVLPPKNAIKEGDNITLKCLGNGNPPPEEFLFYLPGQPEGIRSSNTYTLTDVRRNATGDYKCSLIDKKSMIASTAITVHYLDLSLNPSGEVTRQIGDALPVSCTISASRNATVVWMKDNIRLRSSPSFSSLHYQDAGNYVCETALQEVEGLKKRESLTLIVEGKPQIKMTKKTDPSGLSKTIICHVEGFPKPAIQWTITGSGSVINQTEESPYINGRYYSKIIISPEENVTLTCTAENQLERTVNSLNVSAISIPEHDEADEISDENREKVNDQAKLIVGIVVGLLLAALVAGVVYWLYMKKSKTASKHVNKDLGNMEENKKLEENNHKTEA
The experiment is described as follows: apparent KD on cells.

Experiment [2] concerns the target T2, EphA2, murine, on CT26 cells (mouse, UniProt Q03145 26-977).
T2 construct: whole, on cells; also called murine antigen
The experiment is described as follows: FACS on murine colon cancer cell line CT26 that expresses EphA2.

Experiment [3] addresses T3, Ephrin type-A receptor 2 (EphA2), human, on cells (human, UniProt P29317 24-976).
T3 construct: whole, on cells; also called guide antigen
The experiment is described as follows: FACS. (In general: A flow cytometer gives signals particle by particle.)

Experiment [4] addresses T4, Low-density lipoprotein receptor-related protein 6 (LRP6), human, on cells (human, UniProt O75581 20-1613). The experiment is described as follows: cell-based or functional assay.
For experiment [5], the target named is T4, Low-density lipoprotein …. The experiment is described as follows: apparent KD, flow cytometry on HEK293 cells that express LRP6, curve fit. As to the method:
FIGS. 7A-7E depict the results illustrating characterization of anti-LRP6 scFvs and derived bsAbs. FIG. 7A depicts the results of anti-LRP6 scFv-phage screening by flow cytometry analysis. Individual scFv-phage clones were separately amplified from the 3rd round panning output against LRP6E1E2 or LRP6E3E4 domain. scFv-phage particles were incubated with parental HEK293 or LRP6-transfected HEK293 cells and detected by biotinylated anti-M13 IgG and PE-labeled streptavidin. Relative MFI values (folds of phage binding to LRP6+ cells against LRP6− cells) were plotted on a graph. FIGS. 7B and 7C depict the results of flow cytometry analysis for binding kinetics of E34N19 (B) or E12N21 (C) scFv-Fc to HEK293 cells. The apparent KD was calculated based on the non-linear curve fittings by Prism 5 program. FIG. 7D depicts the results of cell-binding analysis of mono- or bi-specific anti-LRP6 antibodies. Binding of E34N19 scFv-Fc, E34N19 IgG, H/6 TaFv-Fc, 6/H bsIgG, or H3 IgG (each 100 nM) to HEK293 cells originally expressing ALCAM was analyzed by flow cytometry. […]
The apparent antibody binding affinity was measured on target cells by FACS as described (An, Zhu). […] After 1 hr incubation, cells were washed and analyzed by FACS as described above. The apparent KD was determined by a curve fit method using MFI values as described (Benedict, An, Zhu).

The target of experiment [6] is Low-density lipoprotein receptor-related protein 6 (LRP6), human, on cells (human) (UniProt O75581). The experiment is described as follows: cell-based or functional assay.
Sequence of Low-density lipoprotein receptor-related protein 6 (LRP6), human, on cells (human) (O75581 20-1613): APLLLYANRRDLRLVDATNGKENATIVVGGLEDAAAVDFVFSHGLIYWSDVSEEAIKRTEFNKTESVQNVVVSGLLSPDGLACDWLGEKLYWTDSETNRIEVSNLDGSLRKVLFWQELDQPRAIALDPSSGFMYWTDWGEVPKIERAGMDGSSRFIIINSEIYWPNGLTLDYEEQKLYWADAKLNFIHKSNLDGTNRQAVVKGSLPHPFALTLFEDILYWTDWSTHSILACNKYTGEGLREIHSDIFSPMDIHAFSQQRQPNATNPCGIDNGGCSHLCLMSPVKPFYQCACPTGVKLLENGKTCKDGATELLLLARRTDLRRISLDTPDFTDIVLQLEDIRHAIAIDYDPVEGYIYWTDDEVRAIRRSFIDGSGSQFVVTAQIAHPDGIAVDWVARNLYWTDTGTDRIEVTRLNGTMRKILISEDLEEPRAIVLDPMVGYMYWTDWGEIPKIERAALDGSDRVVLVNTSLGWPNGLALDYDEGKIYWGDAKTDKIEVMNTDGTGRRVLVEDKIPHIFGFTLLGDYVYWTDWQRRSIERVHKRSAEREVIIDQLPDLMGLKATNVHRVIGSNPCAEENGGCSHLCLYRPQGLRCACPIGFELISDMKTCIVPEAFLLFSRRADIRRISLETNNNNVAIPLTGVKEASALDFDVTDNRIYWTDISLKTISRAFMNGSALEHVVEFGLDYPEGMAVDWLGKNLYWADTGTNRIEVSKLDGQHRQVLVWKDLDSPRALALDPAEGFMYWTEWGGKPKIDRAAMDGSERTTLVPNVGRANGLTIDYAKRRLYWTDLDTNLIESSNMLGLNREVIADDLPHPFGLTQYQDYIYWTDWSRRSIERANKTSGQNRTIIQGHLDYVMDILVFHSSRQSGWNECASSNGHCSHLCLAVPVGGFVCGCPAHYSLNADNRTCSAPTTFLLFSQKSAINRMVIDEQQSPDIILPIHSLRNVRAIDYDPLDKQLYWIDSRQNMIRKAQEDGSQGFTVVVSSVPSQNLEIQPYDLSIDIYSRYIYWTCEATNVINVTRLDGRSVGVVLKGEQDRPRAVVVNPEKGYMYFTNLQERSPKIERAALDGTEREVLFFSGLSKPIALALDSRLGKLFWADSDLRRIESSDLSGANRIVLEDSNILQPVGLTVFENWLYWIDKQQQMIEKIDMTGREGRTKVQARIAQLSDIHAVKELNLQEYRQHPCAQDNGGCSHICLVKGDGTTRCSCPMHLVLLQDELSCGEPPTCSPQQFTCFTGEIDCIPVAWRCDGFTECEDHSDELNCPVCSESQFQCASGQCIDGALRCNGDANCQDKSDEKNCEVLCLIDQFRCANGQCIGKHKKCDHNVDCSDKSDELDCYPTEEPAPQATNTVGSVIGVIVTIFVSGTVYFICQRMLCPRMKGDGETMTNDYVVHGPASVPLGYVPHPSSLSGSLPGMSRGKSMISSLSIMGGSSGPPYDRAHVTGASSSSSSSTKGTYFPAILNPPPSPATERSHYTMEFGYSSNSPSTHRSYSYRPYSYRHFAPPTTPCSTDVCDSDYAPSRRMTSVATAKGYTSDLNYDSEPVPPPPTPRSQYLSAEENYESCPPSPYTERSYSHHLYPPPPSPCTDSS

T4 sequence (O75581 20-1613): as above
T2 sequence (Q03145 26-977): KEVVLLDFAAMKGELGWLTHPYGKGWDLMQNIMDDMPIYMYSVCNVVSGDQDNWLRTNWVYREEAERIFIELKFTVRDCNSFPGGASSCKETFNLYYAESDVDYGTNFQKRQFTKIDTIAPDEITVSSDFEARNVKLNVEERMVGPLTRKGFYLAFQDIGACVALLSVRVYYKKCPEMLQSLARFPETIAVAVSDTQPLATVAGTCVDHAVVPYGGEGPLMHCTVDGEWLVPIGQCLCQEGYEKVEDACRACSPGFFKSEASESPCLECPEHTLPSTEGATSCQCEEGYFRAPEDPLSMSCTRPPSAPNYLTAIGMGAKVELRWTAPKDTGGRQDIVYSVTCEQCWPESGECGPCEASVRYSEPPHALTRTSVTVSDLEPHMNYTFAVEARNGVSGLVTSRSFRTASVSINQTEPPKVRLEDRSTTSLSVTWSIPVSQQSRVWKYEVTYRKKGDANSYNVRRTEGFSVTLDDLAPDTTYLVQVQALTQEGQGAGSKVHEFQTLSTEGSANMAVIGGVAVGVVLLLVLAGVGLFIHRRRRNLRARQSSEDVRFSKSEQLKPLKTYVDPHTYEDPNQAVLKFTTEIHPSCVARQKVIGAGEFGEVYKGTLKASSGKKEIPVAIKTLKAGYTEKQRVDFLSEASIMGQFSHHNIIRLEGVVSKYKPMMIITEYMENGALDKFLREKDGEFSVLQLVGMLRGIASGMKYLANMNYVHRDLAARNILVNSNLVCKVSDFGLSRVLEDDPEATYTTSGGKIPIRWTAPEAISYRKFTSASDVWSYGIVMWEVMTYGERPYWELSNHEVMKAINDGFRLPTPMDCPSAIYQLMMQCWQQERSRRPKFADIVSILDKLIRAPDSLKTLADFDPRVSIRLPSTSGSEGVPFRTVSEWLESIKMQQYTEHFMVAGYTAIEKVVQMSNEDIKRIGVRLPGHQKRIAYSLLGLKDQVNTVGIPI
T3 sequence (P29317 24-976): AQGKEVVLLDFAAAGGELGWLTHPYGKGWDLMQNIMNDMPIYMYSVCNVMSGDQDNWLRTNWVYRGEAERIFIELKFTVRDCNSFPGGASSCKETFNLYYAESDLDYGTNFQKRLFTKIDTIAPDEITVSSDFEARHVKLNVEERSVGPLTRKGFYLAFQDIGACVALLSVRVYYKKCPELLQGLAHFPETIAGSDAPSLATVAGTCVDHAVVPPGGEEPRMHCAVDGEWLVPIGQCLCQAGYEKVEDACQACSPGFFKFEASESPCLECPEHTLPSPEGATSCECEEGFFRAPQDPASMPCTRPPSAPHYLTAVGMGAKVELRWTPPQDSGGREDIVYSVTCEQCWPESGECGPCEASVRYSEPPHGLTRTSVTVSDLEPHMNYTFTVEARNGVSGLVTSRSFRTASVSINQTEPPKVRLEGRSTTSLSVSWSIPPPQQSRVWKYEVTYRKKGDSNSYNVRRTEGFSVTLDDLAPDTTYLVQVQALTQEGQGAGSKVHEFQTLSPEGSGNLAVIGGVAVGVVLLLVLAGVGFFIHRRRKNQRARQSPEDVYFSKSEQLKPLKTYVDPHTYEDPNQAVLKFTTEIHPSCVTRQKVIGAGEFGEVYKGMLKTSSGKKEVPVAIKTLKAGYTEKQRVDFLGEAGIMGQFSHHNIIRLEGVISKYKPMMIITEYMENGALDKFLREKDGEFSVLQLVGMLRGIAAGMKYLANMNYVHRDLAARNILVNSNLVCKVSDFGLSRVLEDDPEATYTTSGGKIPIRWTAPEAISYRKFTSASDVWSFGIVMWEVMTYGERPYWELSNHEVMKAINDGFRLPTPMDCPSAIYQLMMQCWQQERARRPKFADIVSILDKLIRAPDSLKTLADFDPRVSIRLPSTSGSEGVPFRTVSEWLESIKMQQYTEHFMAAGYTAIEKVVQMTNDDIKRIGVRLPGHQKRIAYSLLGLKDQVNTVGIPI

B1: H3 IgG (antibody, V domains shown)
VH: QVQLVESGGGLVQPGGSLRLSCAASGFTFSSYAMSWVRQAPGKGLEWVSAISGSGGSTYYADSVKGRFTISRDNSKDTLYLQMNSLRAEDTAVYYCASRSLLDYWGQGTLVTVSS
VL: NFMLTQNPAVSVALGQTVRITCQGDSLRSYYASWYQQKPGQAPLLVIYGKNNRPSGIPDRFSGSSSGNTASLTITGAQAEDEADYYCNSRDSSGNPVFGGGTKVTVL
notes: IgG; also called anti-ALCAM H3 IgG; guide antibody H3
Turning to B1, the Kd in experiment [1] came to 0.00734 nM.

B2: RYR (anti-EphA2 guide antibody, format not stated) (antibody, V domains shown)
VH: QVQLQESGGGLVQPGGSLRLSCAASGFTFSSYSMNWVRQAPGKGLEWVSYISSSSSTIYYADSVKGRFTISRDNAKNSLYLQMNSLRAEDTAVYYCARYRLPDFWSGYPNYGMDVWGQGTTVTVSS
VL: QSVLTQPPSVSGAPGQRVTISCTGSSSNIGAGYDVHWYQQLPGTAPKLLIYGNSNRPSGVPDRFSGSKSGTSASLAITGLQAEDEADYYCQSYDSSLSGHVVFGGGTKLTVL
notes: also called HCA-F1
For the molecule B2, the binding result in experiment [2] and in experiment [3] was “binds” each time.

B3: E12N21 scFv-Fc (Fc fusion)
scFv: QVQLQESGGGLVKPGGSLRLSCAASGFTFSSYWMSWVRQAPGKGLEWVANIKQDGSEKYYVDSVKGRFTISRDNSKNTLYLQMNSLRAEDTAIYYCAKTMTASAWLGGGRDSWGQGTLVTVSSGGGGSGGGGSGGGGSQSVLTQDPAVSVALGQTVRITCQGDSLRTLSTNWYQQKSGQAPVLVIYGNSNRPSGVPDRFSGSSSGNTASLTITGAQAEDEADYYCQSYDNSVRGSRVFGTGTKLTVL
notes: scFv gene cloned into unmodified pFUSE-hIgG1-Fc2; also called monoclonal E12N21; not shown: human IgG1 Fc of vector pFUSE-hIgG1-Fc2 (InvivoGen)
In the case of B3, in experiment [4], the “IC50, STF reporter, Wnt1-transfected HEK293” value was roughly 3.5 nM and the “IC50, Wnt1-induced STF reporter activity, HEK293” value is 2.63 nM. Also, in experiment [5], the Kd is roughly 5.2 nM.

B4: PD32 (anti-ALCAM guide antibody, format not stated) (antibody, V domains shown)
VH: QVQLQESGGGLVQPGGSLRLSCAASGFTFSSYALSWVRQAPGKGLEWVSAISGSGGSTYYAGSVKGRFTISRDNSKNTLYLQMNSLRAEDTAVYYCAKGLIASHWGQGTLVTVSS
VL: SELTQDPAVSVALGQTVRITCQGDSLRSYYASWYQQKPGQAPVLVIYGKNNRPSGIPDRFSGSSSGNTASLTITGAQAEDEADYYCNSRDSSGIHLVFGGGTKLTVL
notes: Called 'guide antibody' and 'corresponding mAbs'; also called GPD32
Turning to B4, the Kd in experiment [1] was 0.388 nM.

B5: E34N19 scFv-Fc (Fc fusion)
scFv: QVNLRESGGGLVQPGGSLRLSCAASGFTFSSYAMSWVRQAPGKGLEWVSAISGSGGSTYYADSVKGRFTISRDNSKNTLYLQMNSLRAEDTAVYYCAKVRGHGGNSGWVDYWGQGTLVTVSSGGGGSGGGGSGGGGSQSVLTQDPAVSVALGQTVKITCQGDSLRTYYTSWYQQRPGQAPILVLYANTHRPSSIPDRFSGSSSGTTASLTITGAQAEDEADYYCNSRDSSGNYLFGGGTKLTVL
notes: scFv gene cloned into unmodified pFUSE-hIgG1-Fc2; In some assays biotin-labelled as the detection reagent; also called monospecific E34N19; anti-effector mAb E34N19; not shown: human IgG1 Fc of vector pFUSE-hIgG1-Fc2 (InvivoGen)
For the molecule B5, in experiment [4], the “EC50 (so in the source), STF reporter, Wnt3a, HEK293” value came out at 3.02 nM; the “IC50, STF reporter, Wnt3a-transfected HEK293” value is ~3 nM and 3.43 nM. For the same molecule, the Kd in experiment [5] was roughly 1.4 nM.

B6: E34N19/H3 bsIgG (bispecific antibody, part only; not given: constant regions and CL-scFv linker, not shown: another chain or arm of the molecule; a dimerising Fc or GST; small tags and cut ends)
VH: QVNLRESGGGLVQPGGSLRLSCAASGFTFSSYAMSWVRQAPGKGLEWVSAISGSGGSTYYADSVKGRFTISRDNSKNTLYLQMNSLRAEDTAVYYCAKVRGHGGNSGWVDYWGQGTLVTVSS
VL: QSVLTQDPAVSVALGQTVKITCQGDSLRTYYTSWYQQRPGQAPILVLYANTHRPSSIPDRFSGSSSGTTASLTITGAQAEDEADYYCNSRDSSGNYLFGGGTKLTVL
scFv: QVQLVESGGGLVQPGGSLRLSCAASGFTFSSYAMSWVRQAPGKGLEWVSAISGSGGSTYYADSVKGRFTISRDNSKDTLYLQMNSLRAEDTAVYYCASRSLLDYWGQGTLVTVSSGGGGSGGGGSGGGGSNFMLTQNPAVSVALGQTVRITCQGDSLRSYYASWYQQKPGQAPLLVIYGKNNRPSGIPDRFSGSSSGNTASLTITGAQAEDEADYYCNSRDSSGNPVFGGGTKVTVL
In experiment [6], B6 displayed an IC50, STF reporter, Wnt3a-transfected HEK293 of 0.0446 nM.

B7: E34N19 IgG (antibody, V domains shown)
VH: QVNLRESGGGLVQPGGSLRLSCAASGFTFSSYAMSWVRQAPGKGLEWVSAISGSGGSTYYADSVKGRFTISRDNSKNTLYLQMNSLRAEDTAVYYCAKVRGHGGNSGWVDYWGQGTLVTVSS
VL: QSVLTQDPAVSVALGQTVKITCQGDSLRTYYTSWYQQRPGQAPILVLYANTHRPSSIPDRFSGSSSGTTASLTITGAQAEDEADYYCNSRDSSGNYLFGGGTKLTVL
With B7, in experiment [4], the “IC50, STF reporter, Wnt3a-transfected HEK293” value was determined as 5.2 nM.
